Experimental data as given in patent US11795460B2, “Compositions and methods for TTR gene editing and treating ATTR amyloidosis” (Intellia Therapeutics, Inc., priority 2017, dated 2023).
Strand notation (5' to 3'): a small letter for the sugar, then the base; units joined by * are phosphorothioate-linked, units joined directly phosphodiester-linked; [ ] holds rarer units or linkages, { } end groups; capitals alone tell only the bases. m = 2'-O-methyl; r = 2'-OH (RNA)

B1: G000502: TTR Cyno specific sgRNA modified sequence, SEQ ID No. 114; guide sequence of CR000689; cross homologous between mouse and cyno (nucleic acid)
guide: mA*mC*mA*rCrArArArUrArCrCrArGrUrCrCrArGrCrGrGrUrUrUrUrArGrAmGmCmUmAmGmAmAmAmUmAmGmCrArArGrUrUrArArArArUrArArGrGrCrUrArGrUrCrCrGrUrUrArUrCrAmAmCmUmUmGmAmAmAmAmAmGmUmGmGmCmAmCmCmGmAmGmUmCmGmGmUmGmCmU*mU*mU*mU
B2: G000486: TTR sgRNA modified sequence, Human, SEQ ID No. 93; guide sequence of CR003339 (nucleic acid)
guide: mA*mC*mA*rCrArArArUrArCrCrArGrUrCrCrArGrCrArGrUrUrUrUrArGrAmGmCmUmAmGmAmAmAmUmAmGmCrArArGrUrUrArArArArUrArArGrGrCrUrArGrUrCrCrGrUrUrArUrCrAmAmCmUmUmGmAmAmAmAmAmGmUmGmGmCmAmCmCmGmAmGmUmCmGmGmUmGmCmU*mU*mU*mU
B3: G000496: TTR sgRNA modified sequence, Human, SEQ ID No. 103; guide sequence of CR005304 (nucleic acid)
guide: mG*mG*mC*rCrGrUrGrCrArUrGrUrGrUrUrCrArGrArArGrUrUrUrUrArGrAmGmCmUmAmGmAmAmAmUmAmGmCrArArGrUrUrArArArArUrArArGrGrCrUrArGrUrCrCrGrUrUrArUrCrAmAmCmUmUmGmAmAmAmAmAmGmUmGmGmCmAmCmCmGmAmGmUmCmGmGmUmGmCmU*mU*mU*mU
B4: G000488: TTR sgRNA modified sequence, Human, SEQ ID No. 95; guide sequence of CR003346 (nucleic acid)
guide: mA*mA*mA*rGrUrUrCrUrArGrArUrGrCrUrGrUrCrCrGrGrUrUrUrUrArGrAmGmCmUmAmGmAmAmAmUmAmGmCrArArGrUrUrArArArArUrArArGrGrCrUrArGrUrCrCrGrUrUrArUrCrAmAmCmUmUmGmAmAmAmAmAmGmUmGmGmCmAmCmCmGmAmGmUmCmGmGmUmGmCmU*mU*mU*mU
B5: G000487: TTR sgRNA modified sequence, Human, SEQ ID No. 94; guide sequence of CR003357 (nucleic acid)
guide: mU*mU*mC*rUrUrUrGrGrCrArArCrUrUrArCrCrCrArGrGrUrUrUrUrArGrAmGmCmUmAmGmAmAmAmUmAmGmCrArArGrUrUrArArArArUrArArGrGrCrUrArGrUrCrCrGrUrUrArUrCrAmAmCmUmUmGmAmAmAmAmAmGmUmGmGmCmAmCmCmGmAmGmUmCmGmGmUmGmCmU*mU*mU*mU
B6: G000571: TTR sgRNA modified sequence, Human, SEQ ID No. 112; guide sequence of CR005301 (nucleic acid)
guide: mG*mU*mC*rArCrArGrArArArCrArCrUrCrArCrCrGrUrGrUrUrUrUrArGrAmGmCmUmAmGmAmAmAmUmAmGmCrArArGrUrUrArArArArUrArArGrGrCrUrArGrUrCrCrGrUrUrArUrCrAmAmCmUmUmGmAmAmAmAmAmGmUmGmGmCmAmCmCmGmAmGmUmCmGmGmUmGmCmU*mU*mU*mU
B7: G000499: TTR sgRNA modified sequence, Human, SEQ ID No. 106; guide sequence of CR005303 (nucleic acid)
guide: mU*mG*mA*rArUrCrCrArArGrUrGrUrCrCrUrCrUrGrArGrUrUrUrUrArGrAmGmCmUmAmGmAmAmAmUmAmGmCrArArGrUrUrArArArArUrArArGrGrCrUrArGrUrCrCrGrUrUrArUrCrAmAmCmUmUmGmAmAmAmAmAmGmUmGmGmCmAmCmCmGmAmGmUmCmGmGmUmGmCmU*mU*mU*mU
B8: G000480: TTR sgRNA modified sequence, Human, SEQ ID No. 87; guide sequence of CR003353 (nucleic acid)
guide: mA*mA*mA*rGrGrCrUrGrCrUrGrArUrGrArCrArCrCrUrGrUrUrUrUrArGrAmGmCmUmAmGmAmAmAmUmAmGmCrArArGrUrUrArArArArUrArArGrGrCrUrArGrUrCrCrGrUrUrArUrCrAmAmCmUmUmGmAmAmAmAmAmGmUmGmGmCmAmCmCmGmAmGmUmCmGmGmUmGmCmU*mU*mU*mU
B9: G000494: TTR sgRNA modified sequence, Human, SEQ ID No. 101; guide sequence of CR003360 (nucleic acid)
guide: mG*mU*mG*rArGrUrCrUrGrGrArGrArGrCrUrGrCrArUrGrUrUrUrUrArGrAmGmCmUmAmGmAmAmAmUmAmGmCrArArGrUrUrArArArArUrArArGrGrCrUrArGrUrCrCrGrUrUrArUrCrAmAmCmUmUmGmAmAmAmAmAmGmUmGmGmCmAmCmCmGmAmGmUmCmGmGmUmGmCmU*mU*mU*mU

Legend:
TTR [1] = assay: TTR editing in primary cyno hepatocytes electroporated with Spy Cas9 protein and dgRNAs (Tables 10, 11); assay type: cell-based, cynomolgus monkey; conditions: Table 10; primary cyno hepatocytes electroporated with Spy Cas9 protein (RNP) and dgRNAs
How it was run: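 Editing efficiency is the fraction of NGS reads carrying insertions, deletions or substitutions at the TTR target, measured on MiSeq amplicons from DNA harvested 24, 48 or 72 h post-delivery. Cas9–dgRNA ribonucleoprotein was nucleofected (P3 buffer, EX-147) into primary human or cyno hepatocytes.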

TTR [2] = assay: TTR editing in primary cyno hepatocytes treated with LNP formulated Spy Cas9 mRNA (SEQ ID NO: 2) and sgRNAs (Tables 17, 18); assay type: cell-based, cynomolgus monkey; conditions: for 12.5 ng mRNA, 3.9 nM sgRNA Avg % Edit: Table 17, LNP formulated Spy Cas9 mRNA (SEQ ID NO: 2) and sgRNA, 72 hours
Protocol: (§1) Primary liver hepatocytes. Primary human liver hepatocytes (PHH) and primary cynomolgus liver hepatocytes (PCH) (Gibco) were cultured per the manufacturer's protocol (Invitrogen, protocol 11.28.2012). In brief, the cells were thawed and resuspended in hepatocyte thawing medium with supplements (Gibco, Cat. CM7000) followed by centrifugation at 100 g for 10 minutes for human and 80 g for 4 minutes for cyno. The supernatant was discarded and the pelleted cells resuspended in hepatocyte plating medium plus supplement pack (Invitrogen, Cat. A1217601 and CM3000). Cells were counted and plated on Bio-coat collagen I coated 96-well plates (ThermoFisher, Cat. 877272) at a density of 33,000 cells/well for human or 60,000 cells/well for cyno (or 65,000 cells/well when assaying effects on TTR protein, described further below). Plated cells were allowed to settle and adhere for 6 or 24 hours in a tissue culture incubator at 37° C. and 5% CO2 atmosphere. After incubation cells were checked for monolayer formation and media was replaced with hepatocyte culture medium with serum-free supplement pack (Invitrogen, Cat. A1217601 and CM4000).
(§2) In general, the lipid nanoparticle components were dissolved in 100% ethanol with the lipid component of various molar ratios. The RNA cargos were dissolved in 25 mM citrate, 100 mM NaCl, pH 5.0, resulting in a concentration of RNA cargo of approximately 0.45 mg/mL. The LNPs were formulated with a lipid amine to RNA phosphate (N:P) molar ratio of about 4.5 or about 6, with the ratio of mRNA to gRNA at 1:1 by weight.
(§3) The LNPs were formed by microfluidic mixing of the lipid and RNA solutions using a Precision Nanosystems NanoAssemblr™ Benchtop Instrument, according to the manufacturer's protocol. A 2:1 ratio of aqueous to organic solvent was maintained during mixing using differential flow rates. After mixing, the LNPs were collected, diluted in water (approximately 1:1 v/v), held for 1 hour at room temperature, and further diluted with water (approximately 1:1 v/v) before final buffer exchange. The final buffer exchange into 50 mM Tris, 45 mM NaCl, 5% (w/v) sucrose, pH 7.5 (TSS) was completed with PD-10 desalting columns (GE). If required, formulations were concentrated by centrifugation with Amicon 100 kDa centrifugal filters (Millipore). The resulting mixture was then filtered using a 0.2 μm sterile filter. The final LNP was stored at −80° C. until further use.
(§4) To quantitatively determine the efficiency of editing at the target location in the genome, sequencing was utilized to identify the presence of insertions and deletions introduced by gene editing.
(§5) Primers were designed around the target site within the gene of interest (e.g. TTR), and the genomic area of interest was amplified.
(§6) Additional PCR was performed per the manufacturer's protocols (Illumina) to add chemistry for sequencing. The amplicons were sequenced on an Illumina MiSeq instrument. The reads were aligned to a reference genome (e.g., the human reference genome (hg38), the cynomologus reference genome (mf5), the rat reference genome (rn6), or the mouse reference genome (mm10)) after eliminating those having low quality scores. The resulting files containing the reads were mapped to the reference genome (BAM files), where reads that overlapped the target region of interest were selected and the number of wild type reads versus the number of reads which contain an insertion, substitution, or deletion was calculated.
(§7) The editing percentage (e.g., the “editing efficiency” or “percent editing” or “indel frequency”) is defined as the total number of sequence reads with insertions/deletions (“indels”) or substitutions over the total number of sequence reads, including wild type.
(§8) Lipid nanoparticle formulations of modified sgRNAs targeting human TTR and the cyno matched sgRNA sequences were tested on primary human hepatocytes and primary cyno hepatocytes in a dose response curve. Primary human and cyno hepatocytes were plated as described in Example 1. […]

TTR [3] = assay: TTR editing in primary human hepatocytes treated with LNP formulated Spy Cas9 mRNA (SEQ ID NO: 2) and sgRNAs (Table 16); assay type: cell-based; conditions: LNP formulated Spy Cas9 mRNA (SEQ ID NO: 2) and sgRNA, 72 hours
Protocol: as §1, §2, §3, §4, §5, §6, §7, §8

TTR [4] = assay: TTR editing in primary human hepatocytes transfected with Spy Cas9 mRNA and sgRNAs (Table 13); assay type: cell-based; conditions: primary human hepatocytes co-transfected with Spy Cas9 mRNA (SEQ ID NO:2) and sgRNAs, 12.5 nM
Protocol: as §1
Lipofectamine RNAiMax (ThermoFisher, Cat. 13778150) based transfections were conducted as per the manufacturer's protocol. Cells were sequentially transfected with a lipoplex containing Spy Cas9 mRNA (100 ng), Lipofectamine RNAiMax (0.4 […]) and tracer RNA ([…]), Lipofectamine RNAiMax (0.4 μL/well) and OptiMem.
Transfected cells were harvested post-transfection at 24, 48, or 72 hours. The genomic DNA was extracted from each well of a 96-well plate using 50 μL/well BuccalAmp DNA Extraction solution (Epicentre, Cat. QE09050) per manufacturer's protocol. All DNA samples were subjected to PCR and subsequent NGS analyses, as described herein.
as §4, §5, §6, §7
Guides in modified sgRNA format targeting human and/or cyno TTR were delivered to primary human hepatocytes and primary cyno hepatocytes as described in Example 1. Percent editing was determined for crRNAs comprising each guide sequence across each cell type and the guide sequences were then rank ordered based on highest % edit. The screening data for the guide sequences in Table 2 in both cell lines are listed below (Table 12 through 15).

Molecule	Avg % Deletion (TTR [1])	Avg % Edit (TTR [1])	Avg % Insert (TTR [1])	12.5 ng mRNA, 3.9 nM sgRNA % Edit (TTR [2]; LNP formulated Spy Cas9 mRNA (SEQ ID NO: 2) and cyno matched sgRNAs, 72 hours post treatment)	12.5 ng mRNA, 3.9 nM sgRNA Avg % Edit (TTR [3])	Avg % Deletion (TTR [4])	Avg % Edit (TTR [4])	Avg % Insert (TTR [4])	12.5 ng mRNA, 3.9 nM sgRNA Avg % Edit (TTR [2])
GGGAUUGGUGACGACAGCCG (tested as dual guide RNA, chemistry not given here) [CR003390]	0.39%	16.87%	16.49%	–	–	–	–	–	–
AAUAGGAGUAGGGGCUCAGC (tested as dual guide RNA, chemistry not given here) [CR003384]	1.25%	3.75%	2.50%	–	–	–	–	–	–
CCUCCUCUGCCUUGCUGGAC (tested as dual guide RNA, chemistry not given here) [CR003336]	0.07%	8.18%	8.10%	–	–	–	–	–	–
UGAAUCCAAGUGUCCUCUGA (tested as dual guide RNA, chemistry not given here) [CR005303]	0.56%	59.28%	58.72%	–	–	–	–	–	–
GAAAGGCUGCUGAUGACACC (tested as dual guide RNA, chemistry not given here) [CR003352]	0.09%	1.25%	1.16%	–	–	–	–	–	–
B1	–	–	–	80.70%	–	–	–	–	–
B2	–	–	–	–	61.33%	56.37%	59.13%	2.82%	–
B3	–	–	–	–	30.73%	52.25%	63.30%	11.08%	–
B4	–	–	–	–	44.80%	37.48%	49.40%	11.98%	–
B5	–	–	–	–	17.37%	2.27%	49.57%	47.38%	–
B6	–	–	–	–	–	6.13%	20.47%	14.47%	20.20%
B7	–	–	–	–	16.07%	0.77%	39.30%	38.58%	14.63%
B8	–	–	–	–	59.33%	13.47%	73.28%	59.85%	0.73%
B9	–	–	–	–	6.37%	1.07%	26.22%	25.17%	14.30%
